Source: the supplement of paper PMC9233669
This sample holds only a part of the variants without activity.

How the values were obtained:
[1] = test system: biotinyl-Trp-oxazolone; assay: self-aminoacylation, catalytic enhancement (BWO) (fold over background); higher = more active; k-Seq, kA / k0A0; sequences stand for … in GGGAAUGGAUCCACAUCUACGAAUUC…UUCACUGCAGACUUGACGAAGCUG
Summary of the method: (§1)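 Working in 50 μL HEPES/NaCl/KCl/MgCl2/CaCl2 buffer with 5% acetonitrile at pH 6.9–7.0, mutagenized RNA pools (0.43 μM; 21-nt variable region) were reacted with 2–1250 μM of each biotinyl-aminoacyl-oxazolone for 90 minutes at room temperature. Streptavidin capture followed, with quantification by triplicate qPCR and Illumina sequencing. Catalytic enhancement is reported as median kA over the uncatalyzed rate, the low-activity peak of a bimodal Gaussian fit to the data.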

[2] = test system: biotinyl-Phe-oxazolone; assay: self-aminoacylation, catalytic enhancement (BFO) (fold over background); higher = more active; k-Seq, kA / k0A0; sequences stand for … in GGGAAUGGAUCCACAUCUACGAAUUC…UUCACUGCAGACUUGACGAAGCUG
Summary of the method: as §1

| Sequence | self-aminoacylation [1] | self-aminoacylation [2] |
| --- | --- | --- |
| AAGAUUGCUAAUAGUCGCCAG [Fam3.1 aminoacylation ribozyme variant] | 2.02 |  |
| AAGAUUGCUAAUUGUCGCAAG [Fam3.1 aminoacylation ribozyme variant] | 3.92 |  |
| AAGCUUGCUAAUAGUCGCUAG [Fam3.1 aminoacylation ribozyme variant] | 2 | 2.31 |
| AAGGAUGCUAAUAGUCGCAAG [Fam3.1 aminoacylation ribozyme variant] | 5.63 | 13.7 |
| AAGGUUGCUAAUAGUCGUAAG [Fam3.1 aminoacylation ribozyme variant] | 4.23 | 13.7 |
| AAGUGUGCUAAAAGUCGCAAG [Fam3.1 aminoacylation ribozyme variant] | 4.61 | 10.1 |
| AAGUGUGCUAACAGUCGCAAG [Fam3.1 aminoacylation ribozyme variant] | 4.85 | 12.8 |
| AAGUGUGCUAAUAGUCGCAAU [Fam3.1 aminoacylation ribozyme variant] | 2.01 |  |
| AAGUGUGCUAAUAGUCGCAGG [Fam3.1 aminoacylation ribozyme variant] | 2.17 |  |
| AAGUGUGCUAAUCGUCGCAAG [Fam3.1 aminoacylation ribozyme variant] | 2.44 |  |
| AAGUGUGCUCAUAGUCGCAAG [Fam3.1 aminoacylation ribozyme variant] | 2.34 | 4.43 |
| AAGUUAGCUAAUAGGCGCAAG [Fam3.1 aminoacylation ribozyme variant] | 2.47 | 2.32 |
| AAGUUAGCUAGUAGUCGCAAG [Fam3.1 aminoacylation ribozyme variant] | 2.01 |  |
| AAGUUAGGUAAUAGUCGCAAG [Fam3.1 aminoacylation ribozyme variant] | 2.11 |  |
| AAGUUGGCUAAUAGUCGAAAG [Fam3.1 aminoacylation ribozyme variant] | 2.27 | 2.91 |
| AAGUUGGCUAAUAGUCGCAAG [Fam3.1 aminoacylation ribozyme variant] | 2.29 | 4.46 |
| AAGUUUGCAAAUAGUCGCGAG [Fam3.1 aminoacylation ribozyme variant] | 3.06 | 2.69 |
| AAGUUUGCGAAUAGUCGCGAG [Fam3.1 aminoacylation ribozyme variant] | 2.14 | 8.44 |
| AAGUUUGCUAAAAGUCGAAAG [Fam3.1 aminoacylation ribozyme variant] | 2.17 | 4.76 |
| AAGUUUGCUAAUAGUCCCAAG [Fam3.1 aminoacylation ribozyme variant] | 2.12 | 5.64 |
| AAGUUUGCUAAUAGUCUCAAG [Fam3.1 aminoacylation ribozyme variant] | 4.26 | 15.4 |
| AAGUUUGCUAAUUGUCGCAAA [Fam3.1 aminoacylation ribozyme variant] | 2.49 | 8.83 |
| AAGUUUGCUAUUAGUCGCAGG [Fam3.1 aminoacylation ribozyme variant] | 2.01 |  |
| AAGUUUGGUCAUAGUCGCAAG [Fam3.1 aminoacylation ribozyme variant] | 2.16 | 2.71 |

| Sequence | self-aminoacylation [1] | self-aminoacylation [2] |
| --- | --- | --- |
| AAUGUUGCUAAUAGUCGCAAG [Fam3.1 aminoacylation ribozyme variant] | 2.02 | 2.37 |
| AAUUUUGCUGAUAGUCGCAAG [Fam3.1 aminoacylation ribozyme variant] | 2.31 | 2.05 |
| AUACUUCAAAAAAUCGGUCUG [Fam1A.1 aminoacylation ribozyme variant] | 3.25 | 4.26 |
| AUACUUCAAACAAUCGGGCUG [Fam1A.1 aminoacylation ribozyme variant] | 3.93 | 3.63 |
| AUACUUCAAACAAUCGGUCGG [Fam1A.1 aminoacylation ribozyme variant] | 4.83 | 5.46 |
| AUGCACCUAGGUCAUCGGGUC [Fam2.2 aminoacylation ribozyme variant] |  | 7.15 |
| AUGUUUGCGAAUAGUCGCAAG [Fam3.1 aminoacylation ribozyme variant] |  | 2.47 |
| AUGUUUGCUAAUAGUCGUAAG [Fam3.1 aminoacylation ribozyme variant] | 5.05 | 18.7 |
| AUGUUUGUUAAUAGUCGCAAG [Fam3.1 aminoacylation ribozyme variant] |  | 2.31 |
| AUUACCCGGGUCAUCGAGUUA [Fam2.1 aminoacylation ribozyme variant] | 2.23 |  |
| AUUACCCUGGCCAUCGACUGA [Fam2.1 aminoacylation ribozyme variant] |  | 2.83 |
| AUUACCCUGGUCAUCAAGUGU [Fam2.1 aminoacylation ribozyme variant] |  | 2.34 |
| AUUACCCUGGUCAUUGAGUAA [Fam2.1 aminoacylation ribozyme variant] | 2.02 |  |
| AUUAGCUUGGUCAUCGAGUGA [Fam2.1 aminoacylation ribozyme variant] |  | 2.2 |
| AUUCACCAAGGUCAUCGGGUC [Fam2.2 aminoacylation ribozyme variant] |  | 3.27 |
| AUUCACCUAGGUCAUCAUGUG [Fam2.2 aminoacylation ribozyme variant] |  | 2.12 |
| AUUCACCUAGGUCGUCGGGUU [Fam2.2 aminoacylation ribozyme variant] |  | 3.1 |
| AUUCACCUAGGUUAUCGUGUG [Fam2.2 aminoacylation ribozyme variant] |  | 2.6 |
| AUUCACCUCGGUCAUCGUGUG [Fam2.2 aminoacylation ribozyme variant] |  | 3.14 |
| AUUCACCUGGGUCAUCGGGUC [Fam2.2 aminoacylation ribozyme variant] |  | 5.84 |
| AUUCACCUGGGUCAUCGUGUG [Fam2.2 aminoacylation ribozyme variant] |  | 4.81 |
| AUUCAGCUAGGUCAUCGGGUC [Fam2.2 aminoacylation ribozyme variant] | 3.24 | 13.5 |
| AUUCUCCUAGGUCAUCGGUUG [Fam2.2 aminoacylation ribozyme variant] |  | 6.63 |
| AUUGCCCUGGUCGUCGAGUGA [Fam2.1 aminoacylation ribozyme variant] |  | 8.62 |

| Sequence | self-aminoacylation [1] | self-aminoacylation [2] |
| --- | --- | --- |
| AUUUACCUAGGUCAUCGGCUG [Fam2.2 aminoacylation ribozyme variant] |  | 2.16 |
| CAGUUUGCUAAGAGUCGCAAG [Fam3.1 aminoacylation ribozyme variant] |  | 2.85 |
| CAGUUUGCUAAUAGUCCCAAG [Fam3.1 aminoacylation ribozyme variant] |  | 2.32 |
| CAGUUUGCUAAUAGUCGCAAC [Fam3.1 aminoacylation ribozyme variant] |  | 2.78 |
| CAGUUUGCUAAUAGUCGCAGG [Fam3.1 aminoacylation ribozyme variant] |  | 3.45 |
| CAGUUUUCUAAUAGUCGCAAG [Fam3.1 aminoacylation ribozyme variant] |  | 2.91 |
| CCAAACUUCGAGCAAUCGGUC [Fam1B.1 aminoacylation ribozyme variant] |  | 2.34 |
| CCACACUCCGAGCAAUCGGUC [Fam1B.1 aminoacylation ribozyme variant] | 2.37 |  |
| CCACACUGCAAGCCAUCGGUC [Fam1B.1 aminoacylation ribozyme variant] | 2.76 |  |
| CCACCCUUCAAGCCAUCGGUC [Fam1B.1 aminoacylation ribozyme variant] | 2.57 |  |
| CGACACUUCAAGCAAUCGGUU [Fam1B.1 aminoacylation ribozyme variant] | 2.37 |  |
| CUACUCCAAUCAAUCGGUCUG [Fam1A.1 aminoacylation ribozyme variant] |  | 2.36 |
| CUACUGCAAACACUCGGUCUG [Fam1A.1 aminoacylation ribozyme variant] |  | 5.64 |
| CUACUUCAAACAAGCGGUCGG [Fam1A.1 aminoacylation ribozyme variant] |  | 3.68 |
| CUACUUCAAACCAUCGGUCGG [Fam1A.1 aminoacylation ribozyme variant] |  | 3.15 |
| CUAGUUCAAACAUUCGGUCUG [Fam1A.1 aminoacylation ribozyme variant] |  | 6.01 |
| CUAGUUCAGACAAUCGGUCUG [Fam1A.1 aminoacylation ribozyme variant] |  | 2.61 |
| CUGCUUCAAACAAUCGUUCUG [Fam1A.1 aminoacylation ribozyme variant] |  | 2.08 |
| GAGUUUGCUGAUAGUCGCAAG [Fam3.1 aminoacylation ribozyme variant] |  | 3.71 |
| GUACUACAAACAAUCGGUCUG [Fam1A.1 aminoacylation ribozyme variant] | 2.14 |  |
| GUUACCCUGGUCAUCGAUUGA [Fam2.1 aminoacylation ribozyme variant] |  | 2.77 |
| UUACUUCAAACAAGCGGUCUG [Fam1A.1 aminoacylation ribozyme variant] |  | 6.3 |
| UUACUUCAAACAUUCGGUCUG [Fam1A.1 aminoacylation ribozyme variant] |  | 2.03 |
